This note sets out measurements from PMC3314502.

This test has as its target FLAG-PICK1 (rat) (UniProt Q9EP80). Description: pull-down.
UniProt Q9EP80, sequence (Q9EP80 whole entry): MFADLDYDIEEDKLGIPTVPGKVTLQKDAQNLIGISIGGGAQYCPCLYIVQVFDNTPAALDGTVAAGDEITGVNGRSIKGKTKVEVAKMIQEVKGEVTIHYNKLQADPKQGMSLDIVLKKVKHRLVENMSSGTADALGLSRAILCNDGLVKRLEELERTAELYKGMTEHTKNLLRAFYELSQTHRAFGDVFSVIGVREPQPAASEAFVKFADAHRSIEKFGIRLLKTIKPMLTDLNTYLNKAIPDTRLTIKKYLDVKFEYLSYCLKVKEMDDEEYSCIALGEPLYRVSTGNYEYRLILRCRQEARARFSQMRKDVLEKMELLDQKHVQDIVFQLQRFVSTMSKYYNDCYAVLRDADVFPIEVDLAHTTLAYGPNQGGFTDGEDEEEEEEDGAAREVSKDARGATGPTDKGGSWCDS

“pep2-EVKI, point mutant of the C-terminal 11 amino acids of GluR2 (from UniProt P19491 873-883) (peptide)” returned a percent of PICK1 retained by GST-ct-GluR5 (2b) with the peptide of 8%.
